{
  "source": "patent US20260091068A1",
  "about": "“METHODS FOR TREATING AND PREVENTING DISEASES” (priority 2017, published 2026)",
  "tested_on": "Bacteriophages of E. coli",
  "experiment": "Inactivation of bacteriophages by nucleases and proteases, titer by Gratia's method (Example 22)",
  "format": "cell-based",
  "details": "E. coli phage treated with 10 mcg/ml enzyme for 30 min",
  "experimental": "As a control, when the original phage is added back, the titer increases.",
  "data": [
    {"molecule": "Proteinase K: Proteinase K (Promega) (protein, UniProt P06873 106-384, looked up) Proteinase K: AAQTNAPWGLARISSTSPGTSTYYYDESAGQGSCVYVIDTGIEASHPEFEGRAQMVKTYYYSSRDGNGHGTHCAGTVGSRTYGVAKKTQLFGVKVLDDNGSGQYSTIIAGMDFVASDKNNRNCPKGVVASLSLGGGYSSSVNSAAARLQSSGVMVAVAAGNNNADARNYSPASEPSVCTVGASDRYDRRSSFSNYGSVLDIFGPGTSILSTWIGGSTRSISGTSMATPHVAGLAAYLMTLGKTTAASACRYIADTANKGDLSNIPFGTVNLLAYNNYQA", "values": [
      {"measurement": "Phage titer (by Gratia's method)", "result": "6 × 10^4"}
    ]}
  ]
}
